Reference: the supplement of paper PMC10065799, “High-throughput profiling of sequence recognition by tyrosine kinases and SH2 domains using bacterial peptide display” (eLife, 2023)

Tested on: AncSZ
Experiment: phosphorylation enrichment, bacterial display (enrichment ratio); higher = better substrate or ligand; peptides without Tyr show the background
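Note: 11-residue human phosphosite peptides and single-mutation variants displayed on the E. coli surface, counted by deep sequencing, each peptide's frequency after selection divided by its frequency in the unselected input library; frequency after pTyr selection over input frequency; kinase dosed for 20-30% of maximal phosphorylation in three min.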

Row | Sequence | phosphorylation enrichment
1 | DENWFYMRAAS [RPS19_Y54_T55M] | 1.35
2 | LSFSEYASVQV [SIRPA_Y496_P491L] | 2.44
3 | ANFAKYGNPNE [BCHE_Y505] | 0.561
4 | VECRVYAEDPY [PCCA_Y401] | 1.47
5 | LQFKNYQQLFD [MAN2A1_Y442] | 0.944
6 | FDCGMYSHLQG [LGR4_Y848_YF] | 1.37
7 | EHLNRYISDTF [TTLL10_Y446] | 0.737
8 | GVSFIYTIDGS [DCX_Y105_R102S_YF] | 1.43
9 | SHLLRYLSWTV [CLCNKB_Y93] | 1.24
10 | YSQNICIQNRN [PKP2_Y631_Y631C] | 0.874
11 | VGSIKYLKREW [KCNMA1_Y885_E884K] | 0.68
12 | ITKNPYDPPGR | 0.657
13 | YNNYGYGSDGF [HNRNPH3_Y161_N163S] | 0.735
14 | GHGEEYPAAGA [NOTCH3_Y2221] | 0.682
15 | KAESWYQTKFE [KRT75_Y342_E337K_YF] | 0.873
16 | SFPSTYRYERG [INPPL1_Y661_P659S] | 0.484
17 | SLQFEYVHYGG [CDC14A_Y591_S589F] | 1.06

Row | Sequence | phosphorylation enrichment
18 | FEPWVYSFSFE [PRKDC_Y647_YF] | 1.59
19 | TRSFDYMEGGD [FGF7_Y58_YF] | 1.03
20 | RRIHSYRRHLW [VHL_Y112_G114R] | 0.735
21 | VVQGIYGFHHF [UFSP2_Y285_YF] | 0.886
22 | RLLRGHDQSAY [HLA-C_Y137_Y137H] | 0.632
23 | IEDPFYGNDSD [ACP1_Y133_YF] | 1.51
24 | KKILCYIQGGS [HYDIN_Y4610_N4606K] | 1.31
25 | KLMTEYKRRKQ [ARFGEF3_Y2029_K2031R] | 0.661
26 | NKHTNYTMEHI [ACTN1_Y708] | 0.509
27 | IGKDLYANNVL [ACTA2_Y296_R292G] | 1.2
28 | YMLYQYLKQIE [RPAP3_Y569_D564Y] | 1.53
29 | NYDLDYDSVQP [MYC_Y16] | 3.13
30 | PIFLFYLMDLS [ITGB2_Y131_D128Y_YF] | 2.78
31 | PRDSGYSFETI [MAP1B_Y1921_S1917R_YF] | 1.25
32 | GDFLSYREFHS [ERBIN_Y1107_YF] | 0.625
33 | LERYIYNREEY [HLA-DPB1_Y59_F64Y] | 1.08

Molecular target: EPHB1 (UniProt P54762)
Sequence (P54762 whole entry, looked up): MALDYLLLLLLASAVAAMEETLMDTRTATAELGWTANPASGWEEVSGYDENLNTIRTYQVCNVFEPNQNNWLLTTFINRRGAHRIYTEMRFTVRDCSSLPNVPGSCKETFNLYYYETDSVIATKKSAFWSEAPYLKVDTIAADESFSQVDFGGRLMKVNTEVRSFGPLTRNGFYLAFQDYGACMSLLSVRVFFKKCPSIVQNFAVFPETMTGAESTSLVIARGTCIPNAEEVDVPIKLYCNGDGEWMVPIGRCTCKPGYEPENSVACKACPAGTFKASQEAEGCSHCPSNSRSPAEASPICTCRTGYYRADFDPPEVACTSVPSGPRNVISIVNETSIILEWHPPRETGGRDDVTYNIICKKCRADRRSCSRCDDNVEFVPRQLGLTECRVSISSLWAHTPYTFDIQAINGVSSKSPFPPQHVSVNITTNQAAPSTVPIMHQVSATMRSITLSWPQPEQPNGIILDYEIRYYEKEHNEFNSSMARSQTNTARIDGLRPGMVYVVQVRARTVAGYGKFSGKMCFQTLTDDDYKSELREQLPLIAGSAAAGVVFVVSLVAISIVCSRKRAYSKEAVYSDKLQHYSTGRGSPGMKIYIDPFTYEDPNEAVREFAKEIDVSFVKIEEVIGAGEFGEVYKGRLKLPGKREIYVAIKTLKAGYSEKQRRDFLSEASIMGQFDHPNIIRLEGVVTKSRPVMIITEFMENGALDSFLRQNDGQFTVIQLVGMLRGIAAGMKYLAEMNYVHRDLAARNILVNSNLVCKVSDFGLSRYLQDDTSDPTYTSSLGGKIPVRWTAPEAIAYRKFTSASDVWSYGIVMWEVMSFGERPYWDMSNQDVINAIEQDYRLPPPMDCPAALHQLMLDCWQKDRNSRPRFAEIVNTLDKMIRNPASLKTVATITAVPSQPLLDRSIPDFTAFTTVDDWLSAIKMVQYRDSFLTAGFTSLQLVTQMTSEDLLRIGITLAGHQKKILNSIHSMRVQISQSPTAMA
Experiment: as above

Row | Sequence | phosphorylation enrichment
34 | DENWFYMRAAS [RPS19_Y54_T55M] | 0.718
35 | LSFSEYASVQV [SIRPA_Y496_P491L] | 7.83
36 | ANFAKYGNPNE [BCHE_Y505] | 0.384
37 | VECRVYAEDPY [PCCA_Y401] | 0.908
38 | LQFKNYQQLFD [MAN2A1_Y442] | 0.641
39 | FDCGMYSHLQG [LGR4_Y848_YF] | 1.08
40 | EHLNRYISDTF [TTLL10_Y446] | 0.44
41 | GVSFIYTIDGS [DCX_Y105_R102S_YF] | 0.694
42 | SHLLRYLSWTV [CLCNKB_Y93] | 0.553
43 | YSQNICIQNRN [PKP2_Y631_Y631C] | 0.529
44 | VGSIKYLKREW [KCNMA1_Y885_E884K] | 0.56
45 | ITKNPYDPPGR | 0.457
46 | YNNYGYGSDGF [HNRNPH3_Y161_N163S] | 2.96
47 | GHGEEYPAAGA [NOTCH3_Y2221] | 0.41
48 | KAESWYQTKFE [KRT75_Y342_E337K_YF] | 0.567
49 | SFPSTYRYERG [INPPL1_Y661_P659S] | 0.453
50 | SLQFEYVHYGG [CDC14A_Y591_S589F] | 0.556

Row | Sequence | phosphorylation enrichment
51 | FEPWVYSFSFE [PRKDC_Y647_YF] | 0.775
52 | TRSFDYMEGGD [FGF7_Y58_YF] | 0.487
53 | RRIHSYRRHLW [VHL_Y112_G114R] | 0.725
54 | VVQGIYGFHHF [UFSP2_Y285_YF] | 1.75
55 | RLLRGHDQSAY [HLA-C_Y137_Y137H] | 0.403
56 | IEDPFYGNDSD [ACP1_Y133_YF] | 0.782
57 | KKILCYIQGGS [HYDIN_Y4610_N4606K] | 0.611
58 | KLMTEYKRRKQ [ARFGEF3_Y2029_K2031R] | 0.477
59 | NKHTNYTMEHI [ACTN1_Y708] | 0.35
60 | IGKDLYANNVL [ACTA2_Y296_R292G] | 0.679
61 | YMLYQYLKQIE [RPAP3_Y569_D564Y] | 13.3
62 | NYDLDYDSVQP [MYC_Y16] | 1.19
63 | PIFLFYLMDLS [ITGB2_Y131_D128Y_YF] | 2.51
64 | PRDSGYSFETI [MAP1B_Y1921_S1917R_YF] | 0.657
65 | GDFLSYREFHS [ERBIN_Y1107_YF] | 0.386
66 | LERYIYNREEY [HLA-DPB1_Y59_F64Y] | 0.568

Molecular target: EPHB2 (UniProt P29323)
Sequence (P29323 whole entry, looked up): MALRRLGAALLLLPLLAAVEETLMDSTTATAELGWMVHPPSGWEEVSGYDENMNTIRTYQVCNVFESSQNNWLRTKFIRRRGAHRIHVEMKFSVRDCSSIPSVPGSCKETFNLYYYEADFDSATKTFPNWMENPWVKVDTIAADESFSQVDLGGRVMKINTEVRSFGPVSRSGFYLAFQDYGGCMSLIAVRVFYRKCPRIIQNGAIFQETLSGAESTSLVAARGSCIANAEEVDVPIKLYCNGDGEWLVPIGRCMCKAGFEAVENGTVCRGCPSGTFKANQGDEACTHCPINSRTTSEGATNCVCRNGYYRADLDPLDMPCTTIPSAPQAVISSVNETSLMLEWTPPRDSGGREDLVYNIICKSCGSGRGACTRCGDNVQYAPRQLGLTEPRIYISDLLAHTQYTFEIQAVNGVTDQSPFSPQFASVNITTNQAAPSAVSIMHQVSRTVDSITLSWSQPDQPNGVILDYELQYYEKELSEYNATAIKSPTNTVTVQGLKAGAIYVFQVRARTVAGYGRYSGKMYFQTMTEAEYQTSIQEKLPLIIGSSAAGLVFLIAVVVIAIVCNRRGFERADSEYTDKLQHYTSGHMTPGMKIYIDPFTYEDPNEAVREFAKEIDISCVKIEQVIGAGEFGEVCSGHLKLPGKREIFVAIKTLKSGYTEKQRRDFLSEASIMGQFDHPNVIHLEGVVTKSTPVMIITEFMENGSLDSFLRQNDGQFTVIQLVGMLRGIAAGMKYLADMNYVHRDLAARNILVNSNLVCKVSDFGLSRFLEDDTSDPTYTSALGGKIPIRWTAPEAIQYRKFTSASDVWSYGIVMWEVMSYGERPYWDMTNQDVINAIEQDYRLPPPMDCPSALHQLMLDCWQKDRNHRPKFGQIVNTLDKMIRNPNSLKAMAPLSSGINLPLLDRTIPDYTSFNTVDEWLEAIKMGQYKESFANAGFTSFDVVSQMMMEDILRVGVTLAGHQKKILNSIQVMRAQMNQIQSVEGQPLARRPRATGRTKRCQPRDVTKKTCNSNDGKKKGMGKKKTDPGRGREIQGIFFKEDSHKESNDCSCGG
Experiment: as above

Row | Sequence | phosphorylation enrichment
67 | DENWFYMRAAS [RPS19_Y54_T55M] | 0.654
68 | LSFSEYASVQV [SIRPA_Y496_P491L] | 8.7
69 | ANFAKYGNPNE [BCHE_Y505] | 0.331
70 | VECRVYAEDPY [PCCA_Y401] | 0.794
71 | LQFKNYQQLFD [MAN2A1_Y442] | 0.532
72 | FDCGMYSHLQG [LGR4_Y848_YF] | 0.969
73 | EHLNRYISDTF [TTLL10_Y446] | 0.473
74 | GVSFIYTIDGS [DCX_Y105_R102S_YF] | 0.532
75 | SHLLRYLSWTV [CLCNKB_Y93] | 0.528
76 | YSQNICIQNRN [PKP2_Y631_Y631C] | 0.503
77 | VGSIKYLKREW [KCNMA1_Y885_E884K] | 0.505
78 | ITKNPYDPPGR | 0.428
79 | YNNYGYGSDGF [HNRNPH3_Y161_N163S] | 5.3
80 | GHGEEYPAAGA [NOTCH3_Y2221] | 0.327
81 | KAESWYQTKFE [KRT75_Y342_E337K_YF] | 0.482
82 | SFPSTYRYERG [INPPL1_Y661_P659S] | 0.397
83 | SLQFEYVHYGG [CDC14A_Y591_S589F] | 0.628

Row | Sequence | phosphorylation enrichment
84 | FEPWVYSFSFE [PRKDC_Y647_YF] | 0.744
85 | TRSFDYMEGGD [FGF7_Y58_YF] | 0.544
86 | RRIHSYRRHLW [VHL_Y112_G114R] | 0.82
87 | VVQGIYGFHHF [UFSP2_Y285_YF] | 5.04
88 | RLLRGHDQSAY [HLA-C_Y137_Y137H] | 0.336
89 | IEDPFYGNDSD [ACP1_Y133_YF] | 0.65
90 | KKILCYIQGGS [HYDIN_Y4610_N4606K] | 0.609
91 | KLMTEYKRRKQ [ARFGEF3_Y2029_K2031R] | 0.496
92 | NKHTNYTMEHI [ACTN1_Y708] | 0.401
93 | IGKDLYANNVL [ACTA2_Y296_R292G] | 0.634
94 | YMLYQYLKQIE [RPAP3_Y569_D564Y] | 10.5
95 | NYDLDYDSVQP [MYC_Y16] | 1.96
96 | PIFLFYLMDLS [ITGB2_Y131_D128Y_YF] | 1.01
97 | PRDSGYSFETI [MAP1B_Y1921_S1917R_YF] | 1.22
98 | GDFLSYREFHS [ERBIN_Y1107_YF] | 0.469
99 | LERYIYNREEY [HLA-DPB1_Y59_F64Y] | 0.982

Molecular target: FGFR1 (UniProt P11362)
Sequence (P11362 whole entry, looked up): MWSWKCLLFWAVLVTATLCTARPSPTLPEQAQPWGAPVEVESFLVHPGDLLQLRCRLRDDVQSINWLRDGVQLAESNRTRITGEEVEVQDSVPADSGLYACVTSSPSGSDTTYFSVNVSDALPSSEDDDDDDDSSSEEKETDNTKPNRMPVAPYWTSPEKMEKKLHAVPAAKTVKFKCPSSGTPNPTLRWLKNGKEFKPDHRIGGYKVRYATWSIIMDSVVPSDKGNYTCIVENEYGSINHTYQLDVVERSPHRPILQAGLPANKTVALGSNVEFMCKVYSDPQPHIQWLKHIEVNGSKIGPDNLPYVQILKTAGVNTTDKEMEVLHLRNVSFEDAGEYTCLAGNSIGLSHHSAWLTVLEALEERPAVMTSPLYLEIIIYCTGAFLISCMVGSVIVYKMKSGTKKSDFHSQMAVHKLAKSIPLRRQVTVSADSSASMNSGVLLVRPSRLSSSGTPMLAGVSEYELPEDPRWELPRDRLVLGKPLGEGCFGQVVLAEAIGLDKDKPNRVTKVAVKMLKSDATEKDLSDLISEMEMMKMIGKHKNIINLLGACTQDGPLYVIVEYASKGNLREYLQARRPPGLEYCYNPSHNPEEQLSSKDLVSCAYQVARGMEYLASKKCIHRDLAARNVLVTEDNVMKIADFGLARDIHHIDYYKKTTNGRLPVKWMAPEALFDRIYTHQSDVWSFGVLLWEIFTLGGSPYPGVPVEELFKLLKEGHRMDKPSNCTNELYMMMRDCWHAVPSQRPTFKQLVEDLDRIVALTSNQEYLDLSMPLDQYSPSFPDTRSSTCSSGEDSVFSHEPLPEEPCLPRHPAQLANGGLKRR
Experiment: as above

Row | Sequence | phosphorylation enrichment
100 | DENWFYMRAAS [RPS19_Y54_T55M] | 0.654
101 | LSFSEYASVQV [SIRPA_Y496_P491L] | 2.22
102 | ANFAKYGNPNE [BCHE_Y505] | 0.462
103 | VECRVYAEDPY [PCCA_Y401] | 0.619
104 | LQFKNYQQLFD [MAN2A1_Y442] | 0.453
105 | FDCGMYSHLQG [LGR4_Y848_YF] | 0.89
106 | EHLNRYISDTF [TTLL10_Y446] | 0.428
107 | GVSFIYTIDGS [DCX_Y105_R102S_YF] | 0.496
108 | SHLLRYLSWTV [CLCNKB_Y93] | 0.684
109 | YSQNICIQNRN [PKP2_Y631_Y631C] | 0.524
110 | VGSIKYLKREW [KCNMA1_Y885_E884K] | 0.412
111 | ITKNPYDPPGR | 0.427
112 | YNNYGYGSDGF [HNRNPH3_Y161_N163S] | 0.673
113 | GHGEEYPAAGA [NOTCH3_Y2221] | 0.413
114 | KAESWYQTKFE [KRT75_Y342_E337K_YF] | 0.468
115 | SFPSTYRYERG [INPPL1_Y661_P659S] | 0.39
116 | SLQFEYVHYGG [CDC14A_Y591_S589F] | 0.797

Row | Sequence | phosphorylation enrichment
117 | FEPWVYSFSFE [PRKDC_Y647_YF] | 0.653
118 | TRSFDYMEGGD [FGF7_Y58_YF] | 0.617
119 | RRIHSYRRHLW [VHL_Y112_G114R] | 0.868
120 | VVQGIYGFHHF [UFSP2_Y285_YF] | 0.693
121 | RLLRGHDQSAY [HLA-C_Y137_Y137H] | 0.417
122 | IEDPFYGNDSD [ACP1_Y133_YF] | 0.643
123 | KKILCYIQGGS [HYDIN_Y4610_N4606K] | 0.439
124 | KLMTEYKRRKQ [ARFGEF3_Y2029_K2031R] | 0.677
125 | NKHTNYTMEHI [ACTN1_Y708] | 0.404
126 | IGKDLYANNVL [ACTA2_Y296_R292G] | 0.45
127 | YMLYQYLKQIE [RPAP3_Y569_D564Y] | 6.02
128 | NYDLDYDSVQP [MYC_Y16] | 0.74
129 | PIFLFYLMDLS [ITGB2_Y131_D128Y_YF] | 0.702
130 | PRDSGYSFETI [MAP1B_Y1921_S1917R_YF] | 0.912
131 | GDFLSYREFHS [ERBIN_Y1107_YF] | 0.432
132 | LERYIYNREEY [HLA-DPB1_Y59_F64Y] | 0.726
